Measured values as given in publication PMC4011913.

Tests used:
Assay in all cases: SPR
[1] = target: humanized anti-gD IgG1 variant T307Q/N434A (human)
[2] = target: humanized anti-gD IgG1 variant H310Q (human)
[3] = target: humanized IgG1 anti-herpes simplex virus glycoprotein D antibody, wild type (human)

Soluble murine FcRn (neonatal Fc receptor) (from UniProt Q61559 22-297)
Kd [1]: 108 nM
koff [1]: 0.0021 s⁻¹
kon [1]: 19100 M⁻¹ s⁻¹
Kd [2]: 93000 nM
koff [2]: 0.115 s⁻¹
kon [2]: 1230 M⁻¹ s⁻¹
Kd [3]: 601 nM
koff [3]: 0.0037 s⁻¹
kon [3]: 6160 M⁻¹ s⁻¹
